A short description of this series: yeast display, Sf9 membrane polyspecificity reagent, FACS + sequencing; frameworks hold sequencing errors. The essentials:
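Synthetic nanobody libraries on Saccharomyces cerevisiae BJ5465 were galactose-induced for 36–48 hours, stained 1 hour at 4 °C with 10% biotinylated, detergent-solubilized Sf9 membrane reagent and enriched on streptavidin microbeads. FACS then separated cells into low and high (top ~1%) gates by anti-HA (expression) and streptavidin (reagent binding) fluorescence. Genes were colony-PCR amplified, MiSeq 2 × 250 sequenced and CDR-length filtered. A clone's polyreactivity label is that of its gate of origin.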
Regarding “QVQLVESGGGLVQAGGSLRLSCAASGSIFTQYVMGWYRQAPGKERELGAAITWSGGNTYYADSVKGRFTISRDNAKNTVYLQMNSLKPEDTAVYYCAAYKPYSKYNYWGQGTQVTVSS”, the “polyreactivity (PSR sort gate)” value is “high polyreactivity”.

For “QVQLVESGGGLVQAGGSLRLSCAASGSIFTRNAMGWYRQAPGKERELVARISARSGRTYYADSVKGRFTISRDNAKNTVYLQMNSLKPEDTAVYYFAVRYRGKYPFRYNYWGQGTQVTVSS”, the “polyreactivity (PSR sort gate)” value is reported as “high polyreactivity”.

For “QVQLVESGGGLVQAGGSLRLSCAASGSIFTRYAMGWYRQAPGKERELVAAISSGGSTYYADSVKGRFTISRDNAKNTVYLQMNSLKPEDTAVYYCAKDSGSYRVGIYEPFPYGYWGQGTQVTVSS”, the “polyreactivity (PSR sort gate)” value was “low polyreactivity”.

Turning to “QVQLVESGGGLVQAGGSLRLSCAASGSIFTRYAMGWYRQAPGKERELVAAISTSGGSTYYADSVKGRFTISRDNAKNTVYLQMNSLKPEDTAVYYCAADDQRRSGYYSWGQGTQVTVSS”, the “polyreactivity (PSR sort gate)” value is recorded as “high polyreactivity”.

For “QVQLVESGGGLVQAGGSLRLSCAASGSIFTSNVMGWYRPAPGKERELVAAITITGTTNYADSVKGRFTISRDNAKNTVYLQMNSLIPVDTAVYYCAKDPVDLSPADWRADYDYWGQGTQVTVSS”, the “polyreactivity (PSR sort gate)” value is on record as “low polyreactivity”.

Turning to “QVQLVESGGGLVQAGGSLRLSCAASGSIFTSYAMGWYRQAPGKERELVAGIDWSGGGTYYADSVKGRFTISRDNAKNTVYLQMNSLKPEDTAVYYCNADGPYTRYGPVDYWGQGTQVTVSS”, the “polyreactivity (PSR sort gate)” value is “low polyreactivity”.

With “QVQLVESGGGLVQAGGSLRLSCAASGSIFTTYAMGWYRQAPGKERELVAAISSTSGSTYYADSVKGRFTISRDNAKNTVYLQMNSLKPEDTAVYYCAARGGYWGQGTQVTVSS”, the “polyreactivity (PSR sort gate)” value is “low polyreactivity”.

With “QVQLVESGGGLVQAGGSLRLSCAASGSIFTVYAMGWYRPAPGKEREFVAAITGSGGRTYYADSVKGRFTISRDNAKNTVYLQMNSLKPEDTAVYYCAATTRPGYRYEGDYWGQGTQVTVSS”, the “polyreactivity (PSR sort gate)” value is recorded as “low polyreactivity”.

Take “QVQLVESGGGLVQAGGSLRLSCAASGSIFTVYAMGWYRQAPGKERELVAVINYRGGNTYYADSVKGRFTISRDNAKNTVYLQMNSLKPEDTAVYNCATEVSWHWYQLSVPRMDYWGQGTQVTVSS”: the “polyreactivity (PSR sort gate)” value is “low polyreactivity”.

As to “QVQLVESGGGLVQAGGSLRLSCAASGSIFTVYTMGWYRQAPGKVRELVAAINSRGGTTYYADSVKGRFTISRDNAKNTLYLQMNSLKPEDTAVYYCAAKQRPKSYGPGHYYWGQGTQVTVSS”, the “polyreactivity (PSR sort gate)” value was “high polyreactivity”.

For the sequence “QVQLVESGGGLVQAGGSLRLSCAASGSIFTWYAMGWYRQAPGKERELVAAITRGGSTYADSVKGRFTISRDNAKYTVYLQMNSLKPEDTAVYYCNAVYGVYDFNYWGQGTQVTVSS”, the “polyreactivity (PSR sort gate)” value is reported as “low polyreactivity”.

In the case of “QVQLVESGGGLVQAGGSLRLSCAASGSIFTYKAKVRYRQAPGKERELVAAISASGGSTYYADSVKGRFTISRDNAKHTVYVQMNSLKPEDTALYYCNAYQTSTPLFPGYGYWGQGTQVTVSS”, the “polyreactivity (PSR sort gate)” value is on record as “low polyreactivity”.

On to “QVQLVESGGGLVQAGGSLRLSCAASGSIFTYNAMGWYRQAPGKERELVAAISSRGTSTYYADSVKGRFTISRDNAKNTVYLQMNSLKPEDTAVYYCAAVWVSQRRPWGNTNNYWGQGTQVTVSS”, for which the “polyreactivity (PSR sort gate)” value is given as “high polyreactivity”.

Consider “QVQLVESGGGLVQAGGSLRLSCAASGSIFTYNAMGWYRQAPGKERELVAAITGDDITNYADSVKGRFTISRDNAKNTVYLQMNSLKPEYTAVYYCARDQWVFGSSPVQAGEYWGQGTQVTVSS”, for which the “polyreactivity (PSR sort gate)” value was “low polyreactivity”.

Consider “QVQLVESGGGLVQAGGSLRLSCAASGSIFTYNAMGWYRQAPGKERELVASITWSGGSTYYADSVKGRFTISRDNAKNTVYLQMNSLKPEDTAVYYCAAKRVHGATGYWGQGTQVTVSS”, for which the “polyreactivity (PSR sort gate)” value is “high polyreactivity”.

“QVQLVESGGGLVQAGGSLRLSCAASGSIFTYNGMGWYRQAPGKEREFVAAITWTGGSTYADSVKGRFTISRDNAKNTVYLQMNSLKPEDTAVYYCAAVRRISWYTPVNTRRYYYWGQGTQVTVSS”: the “polyreactivity (PSR sort gate)” value is on record as “high polyreactivity”.

Regarding “QVQLVESGGGLVQAGGSLRLSCAASGSIFTYNVMGWYRHAPGKERELVAAIRTRGDRTYYADSVKGRFTISRDNAKNTVYLQMNSLKPDDTAVYYCAAAGSYYSHEYWGQGTQVTVSS”, the “polyreactivity (PSR sort gate)” value is given as “high polyreactivity”.

Turning to “QVQLVESGGGLVQAGGSLRLSCAASGSIFTYYAMGWYRQAPGKERELVAAISLDGGSTYYADSVKGRFTISRDNAKNTVYLQMNSLKPEDTAVYYCAADYRFIPYTYLYDYWGQGTQVTVSS”, the “polyreactivity (PSR sort gate)” value is listed as “low polyreactivity”.

In the case of “QVQLVESGGGLVQAGGSLRLSCAASGSIFTYYAMGWYRQAPGKERELVAAISWRSGSTYYADSVKGRFTISRDNAKNTVYLQMNSLKPEDTAVYYCAAEDFDYAVWYDYWGQGTQVTVSS”, the “polyreactivity (PSR sort gate)” value is “high polyreactivity”.

Turning to “QVQLVESGGGLVQAGGSLRLSCAASGSIFTYYAMGWYRQAPGKERELVAAISWSGGSTYYADSVKGRFTISRDNAKNTVYLQMNSLKPEDTAVYYCAAGRFYKWSRYQEYDYWGQGTQVTVSS”, the “polyreactivity (PSR sort gate)” value was “low polyreactivity”.

Turning to “QVQLVESGGGLVQAGGSLRLSCAASGSIFTYYAMGWYRQAPGKERELVAAITWGGSTYADSVKGRFTISRDNAKNTVYLQMNSLKPEDTAVYYCAAQFRSYRYPAYHYDYWGQGTQVTVSS”, the “polyreactivity (PSR sort gate)” value is on record as “low polyreactivity”.

With “QVQLVESGGGLVQAGGSLRLSCAASGSIFTYYAMGWYRQAPGKERELVATITGLGGRTYYADSVKGRFTISRDIAKNTVYLQMNSLKPEDTAVYYCAVVPETRYYYWGHGTQVTVSS”, the “polyreactivity (PSR sort gate)” value is given as “high polyreactivity”.

“QVQLVESGGGLVQAGGSLRLSCAASGSIFTYYAMGWYRQAPGKERELVDAITWDDDGTYYADSVKGRFTISRDNAKNTVYLQMNSLKPEDTAVYYCAADDGDPYDYWGQGSQVTVSS”: the “polyreactivity (PSR sort gate)” value is recorded as “low polyreactivity”.

With “QVQLVESGGGLVQAGGSLRLSCAASGSIFTYYVMGWYRQAPGKERELVAGITGGGSTNYADSVKGRFTISRDNAKNTVYLQMNSLKPEDTAVYYCNAYEYLSAGYDYWGQGTQVTVSS”, the “polyreactivity (PSR sort gate)” value was “low polyreactivity”.

Regarding “QVQLVESGGGLVQAGGSLRLSCAASGSIFTYYVMGWYRQAPGKERELVAVISRRGGRTYYADSVKGRFTISRDNAKNTVYLQMNSLKPEDTAVYYCATTYKTRYGGRYRYYYWGQGTQVTVSS”, the “polyreactivity (PSR sort gate)” value was “high polyreactivity”.

Regarding “QVQLVESGGGLVQAGGSLRLSCAASGSIFVAYEMGWYRPAPGKERELVAAIDSVGRTNYADSVKGRFTISRDNAKNTDYLQMNSLKRVDTSVYSCNADQYYSFYDPDDYWGQGTQVTVSS”, the “polyreactivity (PSR sort gate)” value was “low polyreactivity”.

“QVQLVESGGGLVQAGGSLRLSCAASGSIFVDNAMGWYRQAPGTERELVAAINWSGGSTYYADSVKGRFTISRDNAKNTVYLQMNSLKPEDTAVYYCIAARPGQTWDEQSWYDYWGQGTQVTVSS”: the “polyreactivity (PSR sort gate)” value is reported as “low polyreactivity”.

With “QVQLVESGGGLVQAGGSLRLSCAASGSIFVENAMGWNRQAPGKEREFVAAITRSGGSTYYADSVKGRFTISRDNAKNTVYLQMKILKPEDTAVYYCSARIWDEQPAGGYYWGQGTQVTVSS”, the “polyreactivity (PSR sort gate)” value is listed as “low polyreactivity”.

Regarding “QVQLVESGGGLVQAGGSLRLSCAASGSIFVEYAMGWYRQAPGKERELVAAISYSGSSTNYADSVKGRFTISRDNAKNTVYLQMNSLKPEDTAVYYCNADGTGGEQKPYYELDYWGQGTQVTVSS”, the “polyreactivity (PSR sort gate)” value is recorded as “low polyreactivity”.

Turning to “QVQLVESGGGLVQAGGSLRLSCAASGSIFVEYAMGWYRQAPGKERELVASITWSSTSTYYADSVKGRFTISRDNAKNTVYLQMNSLKPEDTAVYYCNTEDYQYAPYEYDYWGQGTQVTVSS”, the “polyreactivity (PSR sort gate)” value is on record as “low polyreactivity”.

On to “QVQLVESGGGLVQAGGSLRLSCAASGSIFVEYAMGWYRQAPGQERELVAAISYSGSSTNYADSVKGRFTISRDNAKNTVYLQINSLKPEDTAVYYSNADGTGGEQKPYYELDYWGQGTQVTVSS”, for which the “polyreactivity (PSR sort gate)” value is “low polyreactivity”.

With “QVQLVESGGGLVQAGGSLRLSCAASGSIFVEYVMGWYRQAPGKERELVADISWRDGDTYYADSVKGRFTISRDNAKNTVYLQMNSLKPEDTAVYFCAADVIVPESYGYWPLSYYYWGQGTQVTVSS”, the “polyreactivity (PSR sort gate)” value was “low polyreactivity”.

For the sequence “QVQLVESGGGLVQAGGSLRLSCAASGSIFVFNAMGWYRQAPGKERELVAAITSGGRTYYADSVKGRFTISRDNAKNTVYLQMNSLKPEDTAVYYCARRYRARGSMYYWGQGTQVTVSS”, the “polyreactivity (PSR sort gate)” value is “high polyreactivity”.

Turning to “QVQLVESGGGLVQAGGSLRLSCAASGSIFVFYAMGWYRQAPGKERELVAAISSVGSTYYADSVKGRFTISRDNAKNTVYLQMNSLKPEDTAVYYCAAVTYYSGYYWGQGTQVTVSS”, the “polyreactivity (PSR sort gate)” value was “low polyreactivity”.

For “QVQLVESGGGLVQAGGSLRLSCAASGSIFVFYAMGWYRQAPGKERELVAAISYRGGSTYADSVKGRFTISRDNEKNTVYLQMNSLKPEDTAVYYCAARGLVRSYDYWGQGTQVTVSS”, the “polyreactivity (PSR sort gate)” value was “high polyreactivity”.

In the case of “QVQLVESGGGLVQAGGSLRLSCAASGSIFVGYAMGRYRQAPGKERELVAAISSRGGSTYYADSVKGRFTISRDNAKNTVYLQMNSLKPEDTGVYYCAAEYRAWWYEYDYWGQGTQVTVSS”, the “polyreactivity (PSR sort gate)” value is on record as “high polyreactivity”.

Regarding “QVQLVESGGGLVQAGGSLRLSCAASGSIFVGYAMGWYRQAPGKERELVAAISRSGGRTYYADSVKGRFTISRDNAKNTVYLQMISLKPEDTAVYYCARQRYEYRTTYYYWGQGTQVTVSS”, the “polyreactivity (PSR sort gate)” value is “high polyreactivity”.

Turning to “QVQLVESGGGLVQAGGSLRLSCAASGSIFVGYAMGWYRQAPGKERELVAAITGSGTRTYYADSVKGRFTISRDNAKNTVYLQMNSLKPEDTAVYYCAAPLSYKNVKYDYWGQGTQVTVSS”, the “polyreactivity (PSR sort gate)” value is reported as “low polyreactivity”.

Take “QVQLVESGGGLVQAGGSLRLSCAASGSIFVGYAMGWYRQAPGKEREMVAAITGSGTRTYYADSVKGRFTISRDNAKNTVYLQMNSLKPEDTAVYYCAAPLSYKNVKYDYWGQGTQVTVSS”: the “polyreactivity (PSR sort gate)” value is listed as “low polyreactivity”.

For the sequence “QVQLVESGGGLVQAGGSLRLSCAASGSIFVHNDMGWYRQAPGKERELVATIDSAGGTYYADSVKGRFTISRDNAKNTVYLQMNSLKPEDTAVYYCAAYGPYVLSIYDYWGQGTQVTVSS”, the “polyreactivity (PSR sort gate)” value is on record as “low polyreactivity”.

For the sequence “QVQLVESGGGLVQAGGSLRLSCAASGSIFVHYAMGGYRQAPGKERELVAAISQRGGSTSYADSVKGRFTISRDNAKNTVYLQMNSLKPEDTAVYYCAAENWIGDYYWGQGTQVTVSS”, the “polyreactivity (PSR sort gate)” value is recorded as “low polyreactivity”.
